To fix the notation:
B1: SEQ ID NO:2: o-pyrocatechuate decarboxylase, Serratia sp. AS12 (protein, listed as Serratia sp.)
chain: MAKIICLEEHTLDKALVMASMPAALEQAPFLSDWGKTVTDGNLPDRSRPQIEKNDLINIKGADIGRGRLDDMDVAGITMQVLSVGGFPHLISAAEGVDLNRAANDRLADAVNAHPDRFAAFATLPWAQPDSAEKELERAVKELGFKGALLNGRPSTHFLDHPDYDGLLARFNALGVPLYLHPGLPVRSVQQAYYGGFSDEVTARLSMFGWGWHHEAGIHLLRLILSGAFDKYPNLQVISGHWGEMLPFWLQRLDDSLPQAATGLRRTIAQTFKEQVYVTPSGMLTLPHFQFIYALLGAERIIFSVDYPYQTLDGVKAFIQSLPVPEEAKEAIAFRNAERLLGLTS
B2: SEQ ID NO:55: o-pyrocatechuate decarboxylase, Serratia sp. AS12 (protein, listed as Serratia sp.)
chain: B1 chain
B3: SEQ ID NO:58: amidohydrolase 2, Mycobacterium colombiense CECT 3035 (protein)
chain: MARVIALEEHYATTEFLRGPGTWLASRPGIVEPAGDLGDGRIAAMDQAGVDLAVLSLAAPGVEQLDPDDAVRLARDCNDQLAAAVRRYPDRLAGFATVPTSAPDRAADELERAVRGLGFPGAVINGHSRGRYLDDPFFEPVLARAAELQAPIYLHPTIPPAGVIESSYAGFAEPVTFALATVGWGWHINTATHALRMILGGVFDRHPSLQMIIGHMGEATSFMLPRFDATLKPELTGLNHPVSSYLRENFHYTFANFNDHATYANLVAQVGIERVAFSADYPFGSMVDARAFLDGLPLSDDERAAISHRNAEKLLGL
modifications: Mycobacterium colombiense
B4: SEQ ID NO:53: amidohydrolase, Granulicella tundricola MP5ACTX9 (protein, listed as Granulicella tundricola)
chain: MARTITLEEHFVTDSFLRATGAYDKPAPPWLAQLQPKLLDLGDGRIAAMDEAGIDLQVLSLAALGFDALDAATATPLVHDINDELAAAVRANPTRLAAFASLALKDPQSAARELERAIQKLGFRGVLLDGTTDGLFLDDPRFTPVFEAAVALNVPIYLHPAPPPESVFDTYFTGLPEGVGQMLSIAGWGWHAETALHTLRLITNGVFDRYPTLQLIIGHMGEMLPMALARTSKALSHAARLRQPVAAYFQSNIHLTTSGYFTQPPLRCALDVVGIDRLMFSIDYPFSANTLGRDYLTELEQTLTPEDLAKLIHRNAESLLNLS
B5: SEQ ID NO:87: amidohydrolase, Novosphingobium sp. PP1Y (protein, listed as Novosphingobium sp.)
chain: MASDIATAADLQTGGRQGYLRIATEEAFATRDQIDVYLRMVRDGTADRGMTSLWGFYAQSPSARATQIIERLLDLGEQRLADMDAAGIDKAVLALTSPGVQPLLDMEEARRIAGNANDRLAERCAAHPDRFIGMTAVAPQDPQWSAREILRGATQLGFKGVQINSHTQGRYLDEPFFDPIFRALGDVGQPLYIHPGTPPDSMIGPLLDAGLDGAIYGFGVETGMHLLRLITAGIFDRYPDLQIMVGHMGEALPYWLYRLDYMHQAGIRSQRYERMRPLKRTIAGYFRSNVLVTCSGMAWEPAIQFARQVMGEDRVMYAMDYPYQYEADEVRALDVMDLSPESKRKFFQTNAERWFDL
B6: SEQ ID NO:52: putative decarboxylase, Streptomyces sp. SA3_actG (protein, listed as Streptomyces sp.)
chain: MAKIIALEEHFSDPAVAKAGAARAQALSPGFAASYSPASGLPYSPSPEVLENLAEKRLADMDAGGITMQVLSGLSAQTVPADVAPALVAGSNDKAAAAVRAHPDRFAAFAALPTAAPEAAVAELDRSVNELGFVGTLIMGRTEGEFLDAPRFEPILARAAALKVPVFLHPGVPPREITDSNYAAGLPTGIGTRLQTAAWGWHQETAVHFLHLVHSGVLDRYPDLQFILGHWGETIPFYLDRVDEALPQRATGLDRSFHEYFRENVYLAPSGMWSQAQLRFCLETFPLERIVFAVDYPFIGNEGAVPFLEKAELPEADKRKIAHENAERLLGL
B7: SEQ ID NO:54: putative decarboxylase, Streptomyces sp. Tu6071 (protein, listed as Streptomyces sp.)
chain: B6 chain with S75G, V128I, D223G, T234M, F285V
B8: SEQ ID NO:51: TIM-barrel fold metal-dependent hydrolase, Mycobacterium gilvum Spyr1 (protein, listed as Mycobacterium gilvum)
chain: MARVIAIEEHYAHPGLQPAEALANLRKHPQLARIQDKLEDLGAGRLADMDAAGIDMQVLSHTVPGAEALPAAQAVDVVRQTNDDLAEVIAAHPDRFAGFAALPMRDPQAAATELQRAVGTLGFCGAMINGLIEGRFLDHPDFTPLLSTAADLGVPLYLHPSFPPPQVAQIYFGGLPPVLADLLATAGWGWHAETALHVLRLISTGVFDRLPELRVIVGHMGEMIPFALARIDTVLSPMTELRQPVAQYFQTNVWFTTSGYTTFPPLQCALSTVGIDRLIFSVDYPYTDNASARALLDTAPISPVDREKLAHATVEALLRV
B9: SEQ ID NO:79: hypothetical protein PTT_18638, Pyrenophora teres f. teres 0-1 (protein)
chain: MATTTTPSTLIATLESHLTPTLAFTSPTTSPTQPALHLIPPTTLTKLRNLGPGRVKDMHMLGHSRQIISHIPVAAPPQICSRFNDAIHAATMTNTAKFSVLAVLPTDGMEAAKELARCVSKYRFVGGVIGLNRGLRINGEGWEELWGLAERLRIPIMFREMWPLAFEIVDYQHHLPYSALGPILTQLHTSHTSSPLPLVRLYLSSVFDHYPSLRLVLAHPGSLPSLVPRIESLINSIPATDKPKRSFLDVWQHNIYLTTADAQDMSSLRALLEQIPVDRVLYASNYPFEERGNELMNELRESEFLTNIEWERVAWVNAETLFNLKEAGTKEARQLTTIPSSRS
modifications: Pyrenophora teres
B10: SEQ ID NO:57: amidohydrolase, Collimonas fungivorans Ter331 (protein)
chain: MAKLICVEEHVLDPAVGAATQSLVRAEAPYLPDWGSRVLDGRHVADRSRPHVIAPSESARKALEMGEPRLADMDAASIDMQVLSYGGFPQLLPAAQAIDLNRAANDKLALAAQAHPARFAGFATLPWQAPEAAARELERAVKQLGLKGALINGRPGDTFLDDARYAPILAAFDELKVPLYVHPGLPLPAVQAPYYGGFERELSARLAMFAWGWHNEAGIQVVRMLLAGVFDRHPRLQLISGHWGEMVPFFLQRLEDSIPQEASGLQRPIVQTYREHVYISPSGMFTLPHFQFIHALMGAQRILYSIDYPYQSLDGARAFIERLPISDTDKALIAHRNAERLLHL
modifications: Collimonas fungivorans
B11: SEQ ID NO:50: hypothetical protein SSMG_03140, Streptomyces sp. AA4 (protein, listed as Streptomyces sp.)
chain: MARIVTLEEHWTDPAVTAAGMPNLLDHVPGYAAAFDPDTGMPYPRHPELLEDLGAARIADMDRHGITTQVLSLVNTFLPADVAPRLTAAANDAMAAAVEAFPGRFAAFATLPTAVPGAAADELRRCVGELGFVGTMIMGRTDGEFLDQPRFDPILRAASDLSVPVYLHPAPPPVAVSEASYAGGLSPAVSAAFRLAAWGWHQETAVHLLHLVLAGVLDRYPGLQFVLGHWGEFIPFYLDRLDESMPRRMTGLDRTFREYFRDNVFITPSGMFSQAQLRYCADTVGTDRIIHSVDFPMLGNEGAVSFLTDSHLSREDQEKIAHGNADALLGLG
B12: SEQ ID NO:56: hypothetical protein EAE_19025, Enterobacter aerogenes KCTC 2190 (protein)
chain: MAKIICLEEHYLDSELGRACMPVALEQAPFLGDWGKTVADGHNPDRSRPQIEKNALINAKGADLGSRRLRDMDEAGITLQILSVGGFPQLAPEDEAVTLNTAANDRLAEAVRNHPDRFAAFATLPWAQPKDAENELVRAVEKLGFKGALLNGRPSSCFLDHPDYDSLLSRFNKLNVPLYLHPGLPLKSVQQAYFTGFSAEVNARLSMFGWGWHHEAGIHLLRLMLSGAFDKYPNMQVISGHWGEMLPFWLQRLDDSLPLAATGLSRTLTRTFQEHVYVTPSGMLTLPHFKFIYELMGAERILFSVDYPYQTLDGVKTFIDSLPVNKAEKEAIAFRNAERLLGITA
modifications: Enterobacter aerogenes
B13: SEQ ID NO:81: 2-amino-3-carboxymuconate-6-semialdehyde decarboxylase, Verticillium dahliae VdLs.17 (protein, listed as Verticillium dahliae)
chain: MAASTKPKVVDIHTHMYPPSYIDILTSRTAIPVVRTFPQAADPRLILLDAEQQALDAALQDPTAKPPGRPLTSHYASLDQKIHFMDTHSIDISVVSLANPWLDFIEPKEAAATARSVNDEFEAMCASQPGRLFFFAALPLTAPLPALLEAVRHVAELEHCRGVILGTSGLGSGLDDPELVPVLEAVAAAALTVFLHPHYGLPNDVWGPRASAEYGHVLPLALGFPMETTIAVARMYLAGVFDRVPALRMLLAHSGGTLPFLAGRIESCILHDGQLVAEGKVGAARRTIWDVLREQVYLDAVIYSEIGLKAAIAASGGADRLMFGTDHPFFPPLGTDEQAKKESRINAGGSRPMITGNAMINGHGGLCNHITQSDYQDVVL

Changes are numbered by the printed parent chain.

A short description of the experiment: 14C assay with IPTG-induced recombinant E. coli cells (14CO2 capture from [14C]-carboxyl-labeled dicamba). The note with it: E. coli cell assay, 108 sequences tested.
Consider B1, for which the “decarboxylation activity of dicamba” value was “showed decarboxylation activity of dicamba”.

Turning to B2, the “decarboxylation activity of dicamba” value is given as “showed decarboxylation activity of dicamba”.

With B3, the “decarboxylation activity of dicamba” value is “showed decarboxylation activity of dicamba”.

Turning to B4, the “decarboxylation activity of dicamba” value was “showed decarboxylation activity of dicamba”.

For B5, the “decarboxylation activity of dicamba” value is reported as “showed decarboxylation activity of dicamba”.

With B6, the “decarboxylation activity of dicamba” value is “showed decarboxylation activity of dicamba”.

As for B7, the “decarboxylation activity of dicamba” value is recorded as “showed decarboxylation activity of dicamba”.

On to B8, for which the “decarboxylation activity of dicamba” value is listed as “showed decarboxylation activity of dicamba”.

B9: the “decarboxylation activity of dicamba” value is on record as “showed decarboxylation activity of dicamba”.

As to B10, the “decarboxylation activity of dicamba” value was “showed decarboxylation activity of dicamba”.

For B11, the “decarboxylation activity of dicamba” value is recorded as “showed decarboxylation activity of dicamba”.

Take B12: the “decarboxylation activity of dicamba” value is “showed decarboxylation activity of dicamba”.

For the molecule B13, the “decarboxylation activity of dicamba” value was “showed decarboxylation activity of dicamba”.

The record behind these values is patent publication US20140287419A1, “Compositions Having Dicamba Decarboxylase Activity and Methods of Use” (priority 2013, published 2014).
